Measurements: publication PMC8924211 (Nature Communications, 2022)

Experiments:
[1] = biological target: SNAP-GAL2R Q82^2.61A (human) (UniProt O43603); test: AlphaScreen or HTRF; saturation binding: HEK293 cells transfected with SNAP-GAL1R or SNAP-GAL2R (WT or mutants), labelled with SNAP-Lumi4-Tb; increasing concentrations of galanin-A2 with or without 100 uM unlabeled galanin, 1 h at room temperature
[2] = biological target: SNAP-GAL2R F264^ECL3A (human) (UniProt O43603); test: as above
[3] = biological target: SNAP-GAL2R Y271^7.32A (human) (UniProt O43603); test: as above
SNAP-GAL2R Y271^7.32A (human), sequence (O43603 whole entry Y271A): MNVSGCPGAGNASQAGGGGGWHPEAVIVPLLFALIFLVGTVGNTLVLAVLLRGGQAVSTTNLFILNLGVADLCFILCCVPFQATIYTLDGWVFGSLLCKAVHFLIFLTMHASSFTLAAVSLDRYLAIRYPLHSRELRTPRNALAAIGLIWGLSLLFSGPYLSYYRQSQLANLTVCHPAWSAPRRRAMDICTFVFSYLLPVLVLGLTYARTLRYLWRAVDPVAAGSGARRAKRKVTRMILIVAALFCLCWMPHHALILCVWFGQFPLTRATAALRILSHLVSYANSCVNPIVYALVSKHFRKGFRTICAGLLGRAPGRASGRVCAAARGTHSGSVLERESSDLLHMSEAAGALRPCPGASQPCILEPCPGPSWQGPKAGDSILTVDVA

SNAP-GAL1R H263^6.51A = biological target: T1, SNAP-GAL1R H263^6.51A (human, UniProt P47211 1-349, H263^6.51A, Lumi4-Tb on the SNAP tag); test: AlphaScreen or HTRF; saturation binding: HEK293 cells transfected with SNAP-tagged receptor (WT or mutant) and labelled with SNAP-Lumi4-Tb, incubated with increasing concentrations of galanin-A2 in the presence or absence of 100 uM unlabeled galanin, 1 h at room temperature; HTRF ratio 665 nm/620 nm; conditions: one partner purified
T1 construct: also called H263A; source: HEK293, transfected, on cells; not shown: SNAP tag, N-terminal, kept
T1 sequence (looked up): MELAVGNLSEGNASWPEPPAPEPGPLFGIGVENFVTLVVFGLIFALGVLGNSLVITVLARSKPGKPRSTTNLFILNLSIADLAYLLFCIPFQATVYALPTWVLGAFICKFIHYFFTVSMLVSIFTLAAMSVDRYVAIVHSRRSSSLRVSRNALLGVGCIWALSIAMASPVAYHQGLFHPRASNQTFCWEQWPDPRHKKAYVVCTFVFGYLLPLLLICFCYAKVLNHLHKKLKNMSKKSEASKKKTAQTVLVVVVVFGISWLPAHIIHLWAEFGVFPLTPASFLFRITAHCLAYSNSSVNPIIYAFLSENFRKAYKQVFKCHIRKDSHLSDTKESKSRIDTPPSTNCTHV

SNAP-GAL1R K197^5.35A = biological target: T2, SNAP-GAL1R K197^5.35A (human, UniProt P47211 1-349, K197^5.35A, Lumi4-Tb on the SNAP tag); test: as above; conditions: one partner purified
T2 construct: also called K197A; source: HEK293, transfected, on cells; not shown: SNAP tag, N-terminal, kept
T2 sequence (looked up): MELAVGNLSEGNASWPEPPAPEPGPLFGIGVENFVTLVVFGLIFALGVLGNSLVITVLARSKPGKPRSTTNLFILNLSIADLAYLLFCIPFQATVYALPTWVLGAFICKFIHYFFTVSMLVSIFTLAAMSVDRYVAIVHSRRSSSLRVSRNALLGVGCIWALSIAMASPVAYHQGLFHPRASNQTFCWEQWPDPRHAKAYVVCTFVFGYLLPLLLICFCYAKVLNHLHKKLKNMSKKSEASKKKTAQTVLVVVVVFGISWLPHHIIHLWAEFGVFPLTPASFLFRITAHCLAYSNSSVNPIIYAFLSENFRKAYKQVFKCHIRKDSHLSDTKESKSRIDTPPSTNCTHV

SNAP-GAL1R R285^7.35A = biological target: T3, SNAP-GAL1R R285^7.35A (human, UniProt P47211 1-349, R285^7.35A, Lumi4-Tb on the SNAP tag); test: as above; conditions: one partner purified
T3 construct: also called R285A; source: HEK293, transfected, on cells; not shown: SNAP tag, N-terminal, kept
T3 sequence (looked up): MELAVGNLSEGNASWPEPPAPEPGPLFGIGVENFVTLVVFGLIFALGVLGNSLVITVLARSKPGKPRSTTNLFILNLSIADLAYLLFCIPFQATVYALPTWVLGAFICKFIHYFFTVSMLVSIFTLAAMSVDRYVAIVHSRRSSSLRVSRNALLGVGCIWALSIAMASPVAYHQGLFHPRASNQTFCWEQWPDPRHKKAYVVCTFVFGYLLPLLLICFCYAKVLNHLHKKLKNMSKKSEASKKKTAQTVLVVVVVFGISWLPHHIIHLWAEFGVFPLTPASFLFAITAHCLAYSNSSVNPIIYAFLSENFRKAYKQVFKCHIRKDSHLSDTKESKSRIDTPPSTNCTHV

SNAP-GAL1R Q174^4.64A = biological target: T4, SNAP-GAL1R Q174^4.64A (human, UniProt P47211 1-349, Q174^4.64A, Lumi4-Tb on the SNAP tag); test: as above; conditions: one partner purified
T4 construct: also called Q174A; source: HEK293, transfected, on cells; not shown: SNAP tag, N-terminal, kept
T4 sequence (looked up): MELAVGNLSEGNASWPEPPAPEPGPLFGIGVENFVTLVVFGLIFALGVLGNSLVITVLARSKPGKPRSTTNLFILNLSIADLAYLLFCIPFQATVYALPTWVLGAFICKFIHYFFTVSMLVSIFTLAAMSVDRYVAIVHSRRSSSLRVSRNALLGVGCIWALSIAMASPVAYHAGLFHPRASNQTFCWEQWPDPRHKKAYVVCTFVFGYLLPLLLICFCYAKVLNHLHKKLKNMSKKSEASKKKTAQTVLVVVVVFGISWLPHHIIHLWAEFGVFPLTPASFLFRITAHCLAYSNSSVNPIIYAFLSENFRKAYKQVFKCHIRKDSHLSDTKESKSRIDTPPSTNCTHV

SNAP-GAL2R F264^ECL3A (human), sequence (O43603 whole entry F264A): as the sequence (O43603 whole entry Y271A) above, with F264A, A271Y counted along it
SNAP-GAL2R Q82^2.61A (human), sequence (O43603 whole entry Q82A): as the sequence (O43603 whole entry Y271A) above, with Q82A, A271Y counted along it

B1: galanin-A2 (full-length galanin labeled with the dye A2 on an additional cysteine at the C-terminal end) (peptide)
peptide: GWTLNSAGYLLGPHAVGNHRSFSDKNGLTSC
modifications: dye A2 on the additional C-terminal cysteine
notes: numbers count on: the mature protein; additional cysteine at the C-terminal end of the peptide, carries the dye A2; source: synthetic peptide (synthesized by Vazyme, China)
Question: B1 was tested. Which Kd [1] did it give?
Answer: Its Kd is greater than 500 nM.

Question: And the Kd [2]?
Answer: The Kd was greater than 500 nM.

Question: And the Kd [3]?
Answer: The Kd was greater than 500 nM.

Question: What about the Kd (SNAP-GAL1R H263^6.51A) of the same binder?
Answer: The Kd was 213 nM.

Question: And the Kd (SNAP-GAL1R K197^5.35A)?
Answer: The Kd was 159 nM.

Question: What about the Kd (SNAP-GAL1R R285^7.35A) of the same binder?
Answer: The Kd was 159 nM.

Question: And the Kd (SNAP-GAL1R Q174^4.64A)?
Answer: Its Kd is 351 nM.
